Laboratory results as given in patent publication US20250257126A1 (CAMBRIDGE ENTERPRISE, published 2025).
Numbering of substitutions follows the chain as printed. Values belong to the binder of their own block, whether it stands above or below them.

How the values were obtained:
murine LGR5 transgene [1] = target: T1, murine LGR5 transgene (mouse, UniProt Q9Z1P4 22-907); experiment: western blot of lysates of HEK293T cells expressing mLGR5, hLGR5 or cynoLGR5 transgenes, probed with hybridoma clone 3
T1 construct: whole, on cells; Overexpressed in HEK293T cells with N-terminal HA tag, V2 receptor tail and eGFP; also tested as lysate; also called mLGR5; mLGR5-eGFP
T1 sequence (looked up): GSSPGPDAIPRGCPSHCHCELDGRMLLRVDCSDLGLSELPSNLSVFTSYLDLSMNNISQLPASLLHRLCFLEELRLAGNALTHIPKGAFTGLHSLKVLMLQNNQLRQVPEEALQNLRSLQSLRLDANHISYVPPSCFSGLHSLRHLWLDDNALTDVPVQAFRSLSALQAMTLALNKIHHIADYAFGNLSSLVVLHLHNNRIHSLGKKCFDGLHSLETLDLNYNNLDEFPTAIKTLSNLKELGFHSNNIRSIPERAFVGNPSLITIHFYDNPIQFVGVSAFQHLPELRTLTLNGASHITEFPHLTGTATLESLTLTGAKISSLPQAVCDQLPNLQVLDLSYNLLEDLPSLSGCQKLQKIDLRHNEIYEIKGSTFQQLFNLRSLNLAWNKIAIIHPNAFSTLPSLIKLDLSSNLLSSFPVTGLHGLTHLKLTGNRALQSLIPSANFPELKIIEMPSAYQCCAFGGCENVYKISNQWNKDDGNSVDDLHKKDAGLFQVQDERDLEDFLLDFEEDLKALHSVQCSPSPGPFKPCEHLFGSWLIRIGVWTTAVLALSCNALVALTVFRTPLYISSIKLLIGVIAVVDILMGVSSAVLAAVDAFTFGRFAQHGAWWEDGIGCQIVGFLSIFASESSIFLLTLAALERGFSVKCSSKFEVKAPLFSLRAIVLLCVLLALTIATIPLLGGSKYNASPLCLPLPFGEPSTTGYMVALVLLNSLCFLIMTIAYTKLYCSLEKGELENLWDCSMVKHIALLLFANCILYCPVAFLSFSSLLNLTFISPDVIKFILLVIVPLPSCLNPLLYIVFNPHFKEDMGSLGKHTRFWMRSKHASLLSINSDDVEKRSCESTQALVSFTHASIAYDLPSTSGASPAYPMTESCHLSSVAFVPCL

[2] = target: T2, human LGR5-eGFP transgene (human, UniProt O75473 22-907); experiment: as above
T2 construct: Tested on live or fixed cells and as cell lysates on western blots; also called hLGR5-eGFP; LGR5-GFP
T2 sequence: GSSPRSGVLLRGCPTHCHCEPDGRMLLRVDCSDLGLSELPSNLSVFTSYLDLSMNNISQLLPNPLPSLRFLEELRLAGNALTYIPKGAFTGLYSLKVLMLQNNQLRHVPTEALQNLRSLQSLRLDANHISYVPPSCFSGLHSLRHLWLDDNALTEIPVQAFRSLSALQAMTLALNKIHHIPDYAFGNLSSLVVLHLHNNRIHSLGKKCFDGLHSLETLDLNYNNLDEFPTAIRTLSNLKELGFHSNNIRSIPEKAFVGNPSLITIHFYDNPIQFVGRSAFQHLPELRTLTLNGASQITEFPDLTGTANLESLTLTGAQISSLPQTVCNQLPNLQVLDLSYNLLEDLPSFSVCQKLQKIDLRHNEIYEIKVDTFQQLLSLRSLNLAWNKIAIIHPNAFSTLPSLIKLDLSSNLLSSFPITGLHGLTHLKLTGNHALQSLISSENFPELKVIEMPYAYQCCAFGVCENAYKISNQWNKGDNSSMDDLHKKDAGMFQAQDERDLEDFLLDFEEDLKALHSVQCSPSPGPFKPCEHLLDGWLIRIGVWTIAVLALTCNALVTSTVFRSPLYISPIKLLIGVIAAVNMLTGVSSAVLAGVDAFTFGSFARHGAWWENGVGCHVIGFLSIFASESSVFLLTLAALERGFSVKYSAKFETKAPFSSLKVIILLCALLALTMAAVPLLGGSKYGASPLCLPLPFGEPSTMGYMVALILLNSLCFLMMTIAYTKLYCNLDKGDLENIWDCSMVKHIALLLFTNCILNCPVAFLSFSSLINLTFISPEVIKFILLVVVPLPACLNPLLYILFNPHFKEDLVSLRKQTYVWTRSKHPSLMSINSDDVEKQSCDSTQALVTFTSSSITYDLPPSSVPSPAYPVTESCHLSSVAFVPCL

murine LGR5 transgene [3] = target: T1, murine LGR5 transgene; experiment: western blot of lysates of HEK293T cells expressing mLGR5, hLGR5 or cynoLGR5 transgenes, probed with hybridoma clone 4
[4] = target: T2, human LGR5-eGFP transgene; experiment: as above
murine LGR5 transgene [5] = target: T1, murine LGR5 transgene; experiment: western blot of lysates of HEK293T cells expressing the LGR transgenes
[6] = target: T3, RAD-displayed Fragment 1A of human LGR5 (human); experiment: bio-layer interferometry (Octet), captured RAD-displayed fragment
T3 construct: also called Frag1A
T3 sequence (O75473 22-37, looked up): GSSPRSGVLLRGCPTH

[7] = target: T4, endogenous human LGR5 of cancer cell lines (human, UniProt O75473 22-907); experiment: flow cytometry of LoVo and NALM6 cells after 60 minutes with fluorescent antibodies, α-HER2 against α-LGR5
T4 construct: Untagged LGR5 as expressed by human LoVo, NALM6, REH cells and CRC organoids; also called LGR5 on LoVo cells; LGR5 on NALM6 cells
T4 sequence: T2 sequence

murine LGR5 transgene [8] = target: T1, murine LGR5 transgene; experiment: western blot of lysates of HEK293T cells expressing mLGR5, hLGR5 or cynoLGR5 transgenes, probed with α-LGR5v4
Protocol: (§1) B. Indirect immune fluorescence analysis of human and murine LGR family expressing HEK293T cells using the a-LGR5v4 antibody (in red), the Alexa488-coupled Phalloidin F-actin probe alongside eGFP fluorescence imaging. In the bottom row of images, LGR5-expressing HEK293T cells were stained with a-LGR5v6. C. H&E staining of tissue sections from a-LGR5v6-ADC (top row) and a-LGR5v4-ADC (bottom row) treated mice.
(§2) Western blots of HEK293t, LoVo and NALM6 lysates was carried out with 40 μg of protein.

[9] = target: T2, human LGR5-eGFP transgene; experiment: as above
Protocol: as §1, §2

binding result (murine LGR5 transgene [5]): no binding
B3: hybridoma clone 12 (antibody, V domains shown)
VH: EVQLQQSGPELVKPGASVKISCKASGYTFTDYYMNWVKQSHGKSLEWIGDINPNNGGTIYNQKFKGKATLTVDKSSSTAYMELRSLTSEDSAVYYCASGYLFDYWGPGTTLTVSS
VL: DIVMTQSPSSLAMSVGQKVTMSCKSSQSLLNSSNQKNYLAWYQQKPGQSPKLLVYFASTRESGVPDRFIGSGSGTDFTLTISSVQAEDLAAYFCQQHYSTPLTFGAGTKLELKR
notes: Murine antibody; also called antibody 12

Kd [6]: 2 nM | binding result [7]: binds | binding result (murine LGR5 transgene [8]): no binding | binding result [9]: binds
B4: α-LGR5 variant 4 (antibody, human IgG1, kappa, V domains shown)
VH: QVQLVQSGAEVKKPGASVKVSCKASGYTFTNYWMQWVRQAPGQGLEWIGEIDPSDSYTNYNQKFQGRVTLTVDTSTSTAYMELSSLRSEDTAVYYCARSLSGYVDYWGQGTTVTVSS
VL: EIVMTQSPATLSLSPGERATLSCRASQDISNRLNWYQQKPGQAVRLLISYRSRRHTGIPARFSGSGSGTDYTLTISSLEPEDFAVYYCQQGNSLPPTFGGGTKLEIKR
notes: Humanized antibody; also called α-LGR5v4; clone 2.4

The next lines start with the binder.

B1: α-LGR5 clone 3 (antibody, mouse IgG1, kappa, V domains shown)
VH: QVQLQQPGAELVKPGASVKLSCKASGYTFTSYWMQWVKQRPGQGLEWIGEIDPSDSYSNYNQKFKGKATLTVDTSSSTAYMQLSSLTSEDSAVYYCARSLSGYVDYWGQGTTLTVSS
VL: DIQMTQTTSSLSASLGDRVTISCRASQDISNRLNWYQQKPDGTVKLLISYRSRLQSGVPSRFSGSGSGTDYSLTISNLEEEDIATYFCQQGNTLPPTFGGGTKLEVRR
notes: Murine monoclonal antibody from hybridoma; also called hybridoma clone 3; antibody 3
binding result (murine LGR5 transgene [1]): no binding | binding result [2]: binds

B2: α-LGR5 clone 4 (antibody, mouse IgG2b, kappa, V domains shown)
VH: B1 VH with S31D, S58T, K65Q, M81I, E89D, Y103S
VL: B1 VL with S76T, E80Q
notes: Murine monoclonal antibody from hybridoma; also called hybridoma clone 4; antibody 4
binding result (murine LGR5 transgene [3]): no binding | binding result [4]: binds
